Experimental data: patent US10000771B2, “Nuclear targeting sequences” (Yeda Research and Development Co. Ltd., priority 2007, dated 2018)

What was measured:
[1] = system: COS7 cells; assay: Subcellular fractionation of GFP-ERK2 constructs; assay type: cell-based; settings: 48 hr after transfection, serum-starved
Description: FIG. 6 is an autoradiograph illustrating the subcellular fractionation of WT-GFP-ERK2 (WT), APA-GFP-ERK2 (APA), or EPE-GFP-ERK2 (EPE). COS7 cells were grown in 10 cm plates and transfected with the above ERK2 constructs. Twenty-four hr after transfection the cells were serum-starved for 16 hr and subjected to cellular fractionation as described under materials and Methods. Western blot analysis of aliquots of the fractions were stained with anti GFP Ab to detect the ERK2 and its mutant, and with anti tubulin and anti c-Jun Abs as markers for the cytoplasmic and nuclear fractions respectively.
Cellular Fractionation: Transfected COS7 cells were starved (0.1% FBS) for 16 h, after which they were washed with ice-cold PBS, suspended in ice-cold buffer H, and centrifuged (12,000×g, 5 min). Then, the nuclear and cytosolic fractions were isolated as described [H. Rubinfeld, T. Hanoch, R. Seger, J. Biol. Chem. 274, 30349 (1999)]. Briefly, the pellets were suspended in 0.1% NP-40 followed by centrifugation (12,000×g, 5 min). The supernatant, containing the cytosolic fraction, was boiled in sample buffer. The pellet was suspended in extraction buffer (420 mM Nacl, 50 mM β-glycerophosphate, 0.5 mM Na3VO4, 1.5 mM MgCl2, 0.2 mM EDTA, 1 mM DTT, 25% glycerol), incubate on ice for 10 min, sonicated (50 W, 2×7 sec), and centrifuged (12,000×g, 5 min). […]

[2] = molecular target: T1, Act-GST-ERK2 (Rattus norvegicus, UniProt P63086); assay: In vitro kinase assay with active GST-ERK2; assay type: biochemical; settings: immunoprecipitated protein as substrate, relative to GFP-ERK2
T1 construct: made in house; host or cells: bacteria co-expressing active MEK1
T1 sequence (P63086 whole entry): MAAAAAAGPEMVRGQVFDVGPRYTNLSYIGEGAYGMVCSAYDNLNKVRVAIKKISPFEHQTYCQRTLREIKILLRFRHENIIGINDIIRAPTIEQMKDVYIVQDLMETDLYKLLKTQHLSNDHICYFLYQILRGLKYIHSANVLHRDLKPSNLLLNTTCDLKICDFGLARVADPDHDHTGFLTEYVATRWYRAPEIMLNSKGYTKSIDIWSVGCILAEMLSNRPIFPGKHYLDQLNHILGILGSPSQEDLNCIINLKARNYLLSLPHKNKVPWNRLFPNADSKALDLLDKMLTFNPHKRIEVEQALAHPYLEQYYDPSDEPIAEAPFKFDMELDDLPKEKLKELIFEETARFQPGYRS
Description: FIGS. 4A-4I are autoradiographs characterizing SPS phosphorylation using an Ab to the phosphorylated SPS domain. FIG. 4A illustrates an elevation of pSPS detection upon stimulation. COS cells were transfected with WT-GFP-ERK2. Twenty-four hr after transfection, the cells were serum-starved for 16 hr and subsequently treated with the general stimulator VOOH (V, 100 μM Na3VO4 and 200 μM H2O2, 15 min), TPA (T, 250 nM, 15 min), EGF (E, 50 ng/ml for 15 min), or left untreated (NT). The GFP-ERK2 was immunoprecipitated with anti GFP Ab, extensively washed, and the IP was then subjected to Western blotting with anti phospho SPS-ERK (αphoSPS-ERK) and anti general ERK (αgen-ERK) Abs. FIG. 4B is a time course of SPS phosphorylation. […] SPS phosphorylation was detected using the anti pSPS Abs, and this was compared to the amount of genral ERKs detected by αgERK. […] SPS-phosphorylation was detected using αpSPS and αgERK Abs. […] The phosphorylation (^32P-ERK2) of ERK and its mutants was detected by autoradiography. […]
Some protein kinases downstream of MEKs that may be involved in the SPS phosphorylation are ERKs themselves (autophosphorylation) as their consensus phosphorylation site includes Ser/Thr followed by a Pro (Yoon and Seger, 2006, Growth Factors, 24, 21-44). […] As expected, ^32P incorporation to GFP-ERK2 was detected mainly when this protein was incubated with Act-ERK2. […]

reduction of phosphorylation (32P incorporation) by Act-ERK2 [2]: ~80%
B1: APA-ERK2: GFP-ERK2 with the two Ser residues of the SPS sequence replaced by Ala (protein)
chain: MAAAAAAGPEMVRGQVFDVGPRYTNLSYIGEGAYGMVCSAYDNLNKVRVAIKKISPFEHQTYCQRTLREIKILLRFRHENIIGINDIIRAPTIEQMKDVYIVQDLMETDLYKLLKTQHLSNDHICYFLYQILRGLKYIHSANVLHRDLKPSNLLLNTTCDLKICDFGLARVADPDHDHTGFLTEYVATRWYRAPEIMLNSKGYTKSIDIWSVGCILAEMLSNRPIFPGKHYLDQLNHILGILGAPAQEDLNCIINLKARNYLLSLPHKNKVPWNRLFPNADSKALDLLDKMLTFNPHKRIEVEQALAHPYLEQYYDPSDEPIAEAPFKFDMELDDLPKEKLKELIFEETARFQPGYRS
modifications: left off: large carriers
localized in the nucleus [1]: ~5%
